What follows are sequences tested on F1*sub RNA substrate (template-directed ligation) (assay: fraction ligated after 30 min (ligated reads / total reads); higher = more ligase activity; sequences stand for … in GAGACCGCAACTGAAAAGTTGT…AGTTCTGCACGTAGAAGCAAAAGGC). Details: 42 °C.
How it was run: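 Oligo-pool templates underwent PCR amplification, T7 transcription and gel purification to yield ribozyme variants. Gel-separated ligated and unligated bands were converted to complementary DNA with barcoded primers and sequenced on a MiSeq, keeping core bases of quality ≥20. The ratio of ligated reads to total reads gave the fraction ligated for every variant.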

| Sequence | fraction ligated |
| --- | --- |
| TATCACTGTGTAAACACTTTGGATGGGTTGA [3d1346] | 0.845 |
| TATCACTGTGTAAGAACTTTGGATGGGTTGA [3d1348] | 0.882 |
| TATCACTGTGTAAGACACTTGGATGGGTTGA [3d1351] | 0.821 |
| TATCACTGTGTAAGACACTTTGATGGGTTGA [3d1352] | 0.355 |
| TATCACTGTGTAAGACACTTTGGAGGGTTGA [3d1354] | 0.0274 |
| TATCACTGTGTAAGACACTTTGGATGGGTTA [3d1356] | 0.823 |
| TATCACTGTGTAAGACACTTTGGATGGGTTG [3d1357] | 0.843 |
| TATCACTGTGTAAGACACTTTGGATGGGTTGA [2d131] | 0.887 |
| TATCACTGTGTAAGACACTTTGGATGGTTGA [3d1355] | 0.216 |
| TATCACTGTGTAAGACACTTTGGTGGGTTGA [3d1353] | 0.0456 |
| TATCACTGTGTAAGACATTTGGATGGGTTGA [3d1350] | 0.849 |
| TATCACTGTGTAAGACCTTTGGATGGGTTGA [3d1349] | 0.889 |
| TATCACTGTGTAAGCACTTTGGATGGGTTGA [3d1347] | 0.878 |
| TATCACTGTGTAGACACTTTGGATGGGTTGA [3d1345] | 0.886 |
| TATCACTGTTAAGACACTTTGGATGGGTTGA [3d1343] | 0.828 |
| TATCACTTCGAAGACACTTTGGATGGGTTGA [3d1313] | 0.803 |
| TATCACTTCGTAAACACTTTGGATGGGTTGA [3d1315] | 0.792 |
| TATCACTTCGTAAGAACTTTGGATGGGTTGA [3d1317] | 0.868 |
| TATCACTTCGTAAGACACTTGGATGGGTTGA [3d1320] | 0.796 |
| TATCACTTCGTAAGACACTTTGATGGGTTGA [3d1321] | 0.795 |
| TATCACTTCGTAAGACACTTTGGAGGGTTGA [3d1323] | 0.0267 |
| TATCACTTCGTAAGACACTTTGGATGGGTTA [3d1325] | 0.706 |
| TATCACTTCGTAAGACACTTTGGATGGGTTG [3d1326] | 0.795 |

| Sequence | fraction ligated |
| --- | --- |
| TATCACTTCGTAAGACACTTTGGATGGGTTGA [2d129] | 0.825 |
| TATCACTTCGTAAGACACTTTGGATGGTTGA [3d1324] | 0.122 |
| TATCACTTCGTAAGACACTTTGGTGGGTTGA [3d1322] | 0.085 |
| TATCACTTCGTAAGACATTTGGATGGGTTGA [3d1319] | 0.84 |
| TATCACTTCGTAAGACCTTTGGATGGGTTGA [3d1318] | 0.802 |
| TATCACTTCGTAAGCACTTTGGATGGGTTGA [3d1316] | 0.797 |
| TATCACTTCGTAGACACTTTGGATGGGTTGA [3d1314] | 0.783 |
| TATCACTTCTAAGACACTTTGGATGGGTTGA [3d1312] | 0.774 |
| TATCACTTGCAAGACACTTTGGATGGGTTGA [3d1599] | 0.798 |
| TATCACTTGCGAAACACTTTGGATGGGTTGA [3d1614] | 0.819 |
| TATCACTTGCGAAGAACTTTGGATGGGTTGA [3d1616] | 0.842 |
| TATCACTTGCGAAGACACTTGGATGGGTTGA [3d1619] | 0.785 |
| TATCACTTGCGAAGACACTTTGATGGGTTGA [3d1620] | 0.77 |
| TATCACTTGCGAAGACACTTTGGAGGGTTGA [3d1622] | 0.105 |
| TATCACTTGCGAAGACACTTTGGATGGGTTA [3d1624] | 0.733 |
| TATCACTTGCGAAGACACTTTGGATGGGTTG [3d1625] | 0.824 |
| TATCACTTGCGAAGACACTTTGGATGGGTTGA [2d165] | 0.835 |
| TATCACTTGCGAAGACACTTTGGATGGTTGA [3d1623] | 0.248 |
| TATCACTTGCGAAGACACTTTGGTGGGTTGA [3d1621] | 0.0968 |
| TATCACTTGCGAAGACATTTGGATGGGTTGA [3d1618] | 0.814 |
| TATCACTTGCGAAGACCTTTGGATGGGTTGA [3d1617] | 0.779 |
| TATCACTTGCGAAGCACTTTGGATGGGTTGA [3d1615] | 0.817 |
| TATCACTTGCGAGACACTTTGGATGGGTTGA [3d1613] | 0.821 |

| Sequence | fraction ligated |
| --- | --- |
| TATCACTTGCGTAAAACTTTGGATGGGTTGA [3d1639] | 0.858 |
| TATCACTTGCGTAAACACTTGGATGGGTTGA [3d1642] | 0.802 |
| TATCACTTGCGTAAACACTTTGATGGGTTGA [3d1643] | 0.768 |
| TATCACTTGCGTAAACACTTTGGAGGGTTGA [3d1645] | 0.0516 |
| TATCACTTGCGTAAACACTTTGGATGGGTTA [3d1647] | 0.777 |
| TATCACTTGCGTAAACACTTTGGATGGGTTG [3d1648] | 0.795 |
| TATCACTTGCGTAAACACTTTGGATGGTTGA [3d1646] | 0.149 |
| TATCACTTGCGTAAACACTTTGGTGGGTTGA [3d1644] | 0.0539 |
| TATCACTTGCGTAAACATTTGGATGGGTTGA [3d1641] | 0.822 |
| TATCACTTGCGTAAACCTTTGGATGGGTTGA [3d1640] | 0.821 |
| TATCACTTGCGTAACACTTTGGATGGGTTGA [3d1627] | 0.786 |
| TATCACTTGCGTAAGAACTTGGATGGGTTGA [3d1660] | 0.827 |
| TATCACTTGCGTAAGAACTTTGATGGGTTGA [3d1661] | 0.853 |
| TATCACTTGCGTAAGAACTTTGGAGGGTTGA [3d1663] | 0.0542 |
| TATCACTTGCGTAAGAACTTTGGATGGGTTA [3d1665] | 0.604 |
| TATCACTTGCGTAAGAACTTTGGATGGGTTG [3d1666] | 0.833 |
| TATCACTTGCGTAAGAACTTTGGATGGTTGA [3d1664] | 0.0836 |
| TATCACTTGCGTAAGAACTTTGGTGGGTTGA [3d1662] | 0.0953 |
| TATCACTTGCGTAAGAATTTGGATGGGTTGA [3d1659] | 0.835 |
| TATCACTTGCGTAAGACACTGGATGGGTTGA [3d1681] | 0.799 |
| TATCACTTGCGTAAGACACTTGATGGGTTGA [3d1682] | 0.747 |
| TATCACTTGCGTAAGACACTTGGAGGGTTGA [3d1684] | 0.0856 |
| TATCACTTGCGTAAGACACTTGGATGGGTTA [3d1686] | 0.558 |

| Sequence | fraction ligated |
| --- | --- |
| TATCACTTGCGTAAGACACTTGGATGGGTTG [3d1687] | 0.796 |
| TATCACTTGCGTAAGACACTTGGATGGTTGA [3d1685] | 0.152 |
| TATCACTTGCGTAAGACACTTGGTGGGTTGA [3d1683] | 0.139 |
| TATCACTTGCGTAAGACACTTTATGGGTTGA [3d1688] | 0.12 |
| TATCACTTGCGTAAGACACTTTGAGGGTTGA [3d1690] | 0.0844 |
| TATCACTTGCGTAAGACACTTTGATGGGTTA [3d1692] | 0.138 |
| TATCACTTGCGTAAGACACTTTGATGGGTTG [3d1693] | 0.725 |
| TATCACTTGCGTAAGACACTTTGATGGTTGA [3d1691] | 0.1 |
| TATCACTTGCGTAAGACACTTTGGAGGGTTA [3d1699] | 0.122 |
| TATCACTTGCGTAAGACACTTTGGAGGGTTG [3d1700] | 0.0669 |
| TATCACTTGCGTAAGACACTTTGGAGGTTGA [3d1698] | 0.0604 |
| TATCACTTGCGTAAGACACTTTGGATGGGTT [3d1703] | 0.704 |
| TATCACTTGCGTAAGACACTTTGGATGGGTTA [2d177] | 0.822 |
| TATCACTTGCGTAAGACACTTTGGATGGGTTG [2d178] | 0.825 |
| TATCACTTGCGTAAGACACTTTGGATGGGTTGA [1d9] | 0.85 |
| TATCACTTGCGTAAGACACTTTGGATGGTTA [3d1701] | 0.227 |
| TATCACTTGCGTAAGACACTTTGGATGGTTG [3d1702] | 0.208 |
| TATCACTTGCGTAAGACACTTTGGATGGTTGA [2d176] | 0.324 |
| TATCACTTGCGTAAGACACTTTGGGGGTTGA [3d1694] | 0.122 |
| TATCACTTGCGTAAGACACTTTGGTGGGTTA [3d1696] | 0.0753 |
| TATCACTTGCGTAAGACACTTTGGTGGGTTG [3d1697] | 0.038 |
| TATCACTTGCGTAAGACACTTTGGTGGTTGA [3d1695] | 0.0605 |
| TATCACTTGCGTAAGACACTTTGTGGGTTGA [3d1689] | 0.05 |

| Sequence | fraction ligated |
| --- | --- |
| TATCACTTGCGTAAGACATTGGATGGGTTGA [3d1674] | 0.802 |
| TATCACTTGCGTAAGACATTTGATGGGTTGA [3d1675] | 0.574 |
| TATCACTTGCGTAAGACATTTGGAGGGTTGA [3d1677] | 0.0596 |
| TATCACTTGCGTAAGACATTTGGATGGGTTA [3d1679] | 0.808 |
| TATCACTTGCGTAAGACATTTGGATGGGTTG [3d1680] | 0.84 |
| TATCACTTGCGTAAGACATTTGGATGGTTGA [3d1678] | 0.16 |
| TATCACTTGCGTAAGACATTTGGTGGGTTGA [3d1676] | 0.0926 |
| TATCACTTGCGTAAGACCTTGGATGGGTTGA [3d1667] | 0.797 |
| TATCACTTGCGTAAGACCTTTGATGGGTTGA [3d1668] | 0.789 |
| TATCACTTGCGTAAGACCTTTGGAGGGTTGA [3d1670] | 0.0866 |
| TATCACTTGCGTAAGACCTTTGGATGGGTTA [3d1672] | 0.785 |
| TATCACTTGCGTAAGACCTTTGGATGGGTTG [3d1673] | 0.81 |
| TATCACTTGCGTAAGACCTTTGGATGGTTGA [3d1671] | 0.176 |
| TATCACTTGCGTAAGACCTTTGGTGGGTTGA [3d1669] | 0.137 |
| TATCACTTGCGTAAGACTTTGGATGGGTTGA [3d1649] | 0.849 |
| TATCACTTGCGTAAGCACTTGGATGGGTTGA [3d1652] | 0.792 |
| TATCACTTGCGTAAGCACTTTGATGGGTTGA [3d1653] | 0.802 |
| TATCACTTGCGTAAGCACTTTGGAGGGTTGA [3d1655] | 0.178 |
| TATCACTTGCGTAAGCACTTTGGATGGGTTA [3d1657] | 0.812 |

Source: the supplement of paper PMC6755084
